Measurements reported in article PMC2806667 (Molecular microbiology, 2009).
One block for each binder: values may come before it.

B2: His6-IVA (SpoIVA) (natural protein, Bacillus subtilis, UniProt P35149 1-492, looked up)
chain: MEKVDIFKDIAERTGGDIYLGVVGAVRTGKSTFIKKFMELVVLPNISNEADRARAQDELPQSAAGKTIMTTEPKFVPNQAMSVHVSDGLDVNIRLVDCVGYTVPGAKGYEDENGPRMINTPWYEEPIPFHEAAEIGTRKVIQEHSTIGVVITTDGTIGDIARSDYIEAEERVIEELKEVGKPFIMVINSVRPYHPETEAMRQDLSEKYDIPVLAMSVESMRESDVLSVLREALYEFPVLEVNVNLPSWVMVLKENHWLRESYQESVKETVKDIKRLRDVDRVVGQFSEFEFIESAGLAGIELGQGVAEIDLYAPDHLYDQILKEVVGVEIRGRDHLLELMQDFAHAKTEYDQVSDALKMVKQTGYGIAAPALADMSLDEPEIIRQGSRFGVRLKAVAPSIHMIKVDVESEFAPIIGTEKQSEELVRYLMQDFEDDPLSIWNSDIFGRSLSSIVREGIQAKLSLMPENARYKLKETLERIINEGSGGLIAIIL

Experiments:
His6-IVA (SpoIVA) [1] = biological target: B2; test: far-Western, overlay or dot blot
GST-VID (full length) = biological target: T1, GST-VID (full length) (Bacillus subtilis, UniProt P37963 1-575); test: pull-down
T1 sequence (looked up): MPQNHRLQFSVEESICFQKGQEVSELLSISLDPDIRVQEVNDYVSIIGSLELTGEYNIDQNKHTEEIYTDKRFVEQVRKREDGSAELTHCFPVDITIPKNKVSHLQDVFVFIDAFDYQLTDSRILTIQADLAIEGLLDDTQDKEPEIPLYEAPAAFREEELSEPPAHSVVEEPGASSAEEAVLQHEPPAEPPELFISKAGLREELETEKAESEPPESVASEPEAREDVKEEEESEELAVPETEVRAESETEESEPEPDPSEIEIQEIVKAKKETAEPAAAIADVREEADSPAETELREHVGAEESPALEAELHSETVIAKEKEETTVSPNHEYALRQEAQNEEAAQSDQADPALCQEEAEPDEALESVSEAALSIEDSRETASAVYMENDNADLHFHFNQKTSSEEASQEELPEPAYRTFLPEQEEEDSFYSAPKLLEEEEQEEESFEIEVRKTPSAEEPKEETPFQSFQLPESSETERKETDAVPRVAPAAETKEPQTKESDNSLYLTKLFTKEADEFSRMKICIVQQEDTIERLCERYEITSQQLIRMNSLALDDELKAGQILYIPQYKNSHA

His6-VID full length = biological target: T2, His6-VID full length (Bacillus subtilis, UniProt P37963 1-575); test: far-Western, overlay or dot blot
T2 sequence (looked up): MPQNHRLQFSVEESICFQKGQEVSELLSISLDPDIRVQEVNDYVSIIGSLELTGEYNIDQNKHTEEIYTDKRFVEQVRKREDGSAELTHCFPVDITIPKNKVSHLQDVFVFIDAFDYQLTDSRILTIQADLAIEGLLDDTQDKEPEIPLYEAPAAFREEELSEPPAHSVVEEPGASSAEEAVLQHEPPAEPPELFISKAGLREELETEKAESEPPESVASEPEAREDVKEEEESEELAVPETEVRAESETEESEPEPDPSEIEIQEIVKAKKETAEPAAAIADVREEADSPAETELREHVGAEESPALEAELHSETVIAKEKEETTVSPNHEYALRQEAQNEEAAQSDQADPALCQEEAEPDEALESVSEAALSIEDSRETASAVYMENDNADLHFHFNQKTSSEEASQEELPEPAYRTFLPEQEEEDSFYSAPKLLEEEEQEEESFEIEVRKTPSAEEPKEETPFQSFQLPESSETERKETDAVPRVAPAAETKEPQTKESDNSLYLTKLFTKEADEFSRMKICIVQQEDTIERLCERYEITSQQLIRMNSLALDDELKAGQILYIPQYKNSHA

His6-IVA (SpoIVA) [2] = biological target: B2; test: pull-down

binding result (His6-IVA (SpoIVA) [1]): binds
B1: His6-VID(121-575) (domain or fragment, Bacillus subtilis, UniProt P37963 121-575, looked up)
chain: DSRILTIQADLAIEGLLDDTQDKEPEIPLYEAPAAFREEELSEPPAHSVVEEPGASSAEEAVLQHEPPAEPPELFISKAGLREELETEKAESEPPESVASEPEAREDVKEEEESEELAVPETEVRAESETEESEPEPDPSEIEIQEIVKAKKETAEPAAAIADVREEADSPAETELREHVGAEESPALEAELHSETVIAKEKEETTVSPNHEYALRQEAQNEEAAQSDQADPALCQEEAEPDEALESVSEAALSIEDSRETASAVYMENDNADLHFHFNQKTSSEEASQEELPEPAYRTFLPEQEEEDSFYSAPKLLEEEEQEEESFEIEVRKTPSAEEPKEETPFQSFQLPESSETERKETDAVPRVAPAAETKEPQTKESDNSLYLTKLFTKEADEFSRMKICIVQQEDTIERLCERYEITSQQLIRMNSLALDDELKAGQILYIPQYKNSHA

Binder: B2
binding result (GST-VID (full length)): binds
binding result (His6-VID full length): binds

binding result (His6-IVA (SpoIVA) [1]): binds
B3: His6-VID(121-521) (domain or fragment, Bacillus subtilis, UniProt P37963 121-521, looked up)
chain: DSRILTIQADLAIEGLLDDTQDKEPEIPLYEAPAAFREEELSEPPAHSVVEEPGASSAEEAVLQHEPPAEPPELFISKAGLREELETEKAESEPPESVASEPEAREDVKEEEESEELAVPETEVRAESETEESEPEPDPSEIEIQEIVKAKKETAEPAAAIADVREEADSPAETELREHVGAEESPALEAELHSETVIAKEKEETTVSPNHEYALRQEAQNEEAAQSDQADPALCQEEAEPDEALESVSEAALSIEDSRETASAVYMENDNADLHFHFNQKTSSEEASQEELPEPAYRTFLPEQEEEDSFYSAPKLLEEEEQEEESFEIEVRKTPSAEEPKEETPFQSFQLPESSETERKETDAVPRVAPAAETKEPQTKESDNSLYLTKLFTKEADEFSR

binding result (His6-IVA (SpoIVA) [2]): binds
B4: GST-VID L201-A575 fragment (domain or fragment, Bacillus subtilis, UniProt P37963 201-575, looked up)
chain: LREELETEKAESEPPESVASEPEAREDVKEEEESEELAVPETEVRAESETEESEPEPDPSEIEIQEIVKAKKETAEPAAAIADVREEADSPAETELREHVGAEESPALEAELHSETVIAKEKEETTVSPNHEYALRQEAQNEEAAQSDQADPALCQEEAEPDEALESVSEAALSIEDSRETASAVYMENDNADLHFHFNQKTSSEEASQEELPEPAYRTFLPEQEEEDSFYSAPKLLEEEEQEEESFEIEVRKTPSAEEPKEETPFQSFQLPESSETERKETDAVPRVAPAAETKEPQTKESDNSLYLTKLFTKEADEFSRMKICIVQQEDTIERLCERYEITSQQLIRMNSLALDDELKAGQILYIPQYKNSHA
